Results on 30 sequences are retold here after the nanobody polyreactivity screen of Harvey et al. (2022).

This data set is described as follows: yeast display, Sf9 membrane polyspecificity reagent, FACS + sequencing; frameworks hold sequencing errors. A digest of the protocol: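 After 36–48 hours of galactose induction, yeast (Saccharomyces cerevisiae BJ5465) displaying a synthetic nanobody library were stained at 4 °C for 1 hour with 10% biotinylated, detergent-solubilized Sf9 membrane reagent. Streptavidin microbeads enriched the stained cells before FACS sorting into low and high (top ~1%) gates on anti-HA and streptavidin fluorescence. Each clone's polyreactivity label reflects its gate of origin.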
On to “QVQLVESGGGLVQAGGRHRISCAASGLICVTYAMGWYRQAPGKERELVAVITASGDGTYYADSVKGRFTMSRDNAKNTVYLQMNSLKPEDSAVYSCAAGNMSQVGAIGKNTSQSDYWGQGTHVTVSS”, for which the “polyreactivity (PSR sort gate)” value is on record as “low polyreactivity”.

With “QVQLVESGGGLVQAGGSLRFSCAASGTFVPYAMGWYRQAPGKEMELVARITWRGGSTYYADSVKGRFTISRDNANNTVYLQMNSLKPEETAVYYCATVSDNRYYYWGQGTQVTVSS”, the “polyreactivity (PSR sort gate)” value was “low polyreactivity”. With “QVQLVESGGGLVQAGGSLRLSCAASGSIFGAYAMGWYRQAPGKERELVAAISGSGTSTYYADSVKGRFTISRDNAKNTVYLQMNSLKPDDTAVYYCATAKLTWRSQGLDYWGQGTQVTVSS”, the “polyreactivity (PSR sort gate)” value is on record as “low polyreactivity”. The value for “QVQLEESGGGLVQAGGSLSLSCAASGSSLDTYVMGWYRQAPGKEREVVAAISSDTSTNYADSVKGRFTISRDNAKNTVYLQMNSLNPEDTAVYYCAAVGSYYGWYQGFDYWGQGTLVTVSS” was “low polyreactivity”; that for “QVQLVESGGGLVQAGGSLRLSCAASGRTFYFYTMGWYRQAPGKERELVAAISWSGGSTYYADSVKGRFTISRDNAKNTVYLQMISLKPEDTAVYYCAASSPWEQSNDQFYYWGQGTQVTVSS” was “low polyreactivity”; that for “QVQLVESGGGLVQAGGSLRLSCAASGFTFRIYAMGWYRQAPGKERELVAAITSSGGTTYYADSVKGRFTISRDNAKNTVYLQMNSLKPEDTAVYYCNVAGFKYYSWGTYDYWGQGTQVTVSS” was “high polyreactivity”. The value for “QVQLVESGGGLVQAGGSLRLSCAASGFTFARYVMGWSRQAPGKERELVAGITYRVGSTYYADSVKGRFSISRDNAKNTVYLQMNSLKPEDTAVYYCAAYLSTGYYYWGQGTQVTVSS” was “high polyreactivity”; that for “QVQLVASGGGLVQAGGSLRLRCAASGFIFRYNTMGWYRQAPGKEREMVAVINRGGSTYYADSVKGRFTISRDNAKNTVYLQLNSLKAEDTGVYDCNVAKFGRYYYWGQGTQVTVSS” was “high polyreactivity”. The value for “QVQLVESGGGLVQAGGSLRLSCAASGSTFIPYAMGWYRQAPGKERELVAAISFNDGITYYADSVKGRFKISRDNAKNTVYLQMNSLKPEDTAVYYCAAEDWSDYPYGMDYWGQGTQVTVSS” was “high polyreactivity”; that for “QVQLVESGGGLVQAGGSLRLSCAASGSTFRWYAMGWYRQAPGKERELVAAIRYTGGSTYYADSVKGRFTISRDNAKNTVYLQMNSLKPEDTAVYYCNARTFRRYVSYSRTYVGYDYWGQGTQVTVSS” was “high polyreactivity”; that for “QVQLVESGGGLVQAGGSLRLSCAASGSTFKSYTMGWYRPAPGKERELVAAISGSGGRTYYADSVKGRFTISRDNAKNTVYLQMNSLKPEDTAVYYCAATGPYGFYWGQGTQVTVSS” was “high polyreactivity”. As to “QVQLVESGGGLVQAGCSLRLSCAASGSTFRYYAMGWYRQAPGKERELVAAINRSGGSTYYADSVKGRFTISRDNAKNTVYLQMYSLKPEDTAVYYCAAPWARHYSNPDDYWGQGTQVTVSS”, the “polyreactivity (PSR sort gate)” value is “high polyreactivity”.

As for “QVQLVESGGGLVQAGGSLRLSCAASGRTFKINAMGWYRPAPGKERELVAAISRGGGSTYADSVKGRFTISRDNAKNTVYLQMNSLKPEDTAVYYCAARVYGTRKINYSWGQGTQVTVSS”, the “polyreactivity (PSR sort gate)” value is recorded as “high polyreactivity”.

Consider “QVQLVESGGGLVQEGGSLRLSCAASGSILIVYAMGWYRQATGKERELVAAITRGGRTNYADSVKGRFTISRDNAKNTVYLQMNSLKPEDTAVYYCAARVLPANVKPYNYWGQGTQVTVSS”, for which the “polyreactivity (PSR sort gate)” value is given as “high polyreactivity”.

For the sequence “QVQLVESGGGLVQAGGSLRLSCAPSGFIFYFYTMGRYRQAPGKEMELVAGITWLDGSTYYADSVKGRLTISRDNAKNTVYLQRNSLKPEDTAVYYCAVDYDLVVSPYYYWGQGTQVTVSS”, the “polyreactivity (PSR sort gate)” value is “low polyreactivity”. The value for “QVQLVESGGGLVQAGGSLRLSCAASGSTFSYYAMGWYRQAPGKEWEFVAAISRSGGRTYYADSVKGRFTISRDNAKNTVYLQMNSLKPEDTAVYYCATVYYYDFSRTHPWPGDYWGQGTQVTVSS” was “high polyreactivity”. The value for “QVHLVESGGGLVQAGGSLRLSCAASGSIFSVYTMGWYRQATGKEREFVPSIDWSAGSTNYADSVKGRFTISRDNAKNTVYFQRNSLKPEDTADDYCARAGSSWDTLYKYYLEHDYWGQGSQVTVSS” was “low polyreactivity”; that for “QVQLVESGGGLVQAGGSLRLSCAACGRTFVDYVMGSYRQAPGKERELVAAISRSGSTYYADSVKGRFTISRDNAKNTVYLQRNSLKPEDTAVYYCAASSVALPWYASWYVYGYEYCGQGTQVTVSS” was “low polyreactivity”; that for “QVQLLESGGGLVQAGGSLRLSCAASGSTFDDNAMGWYRQAPGKERELVAGISDGDDSTNYADSVKGRFTISRDNAKNTVYLQMNRLKPEDTAVYYCNARYVRTYGVRFGYDYWGQGTQVTVSS” was “low polyreactivity”. The value for “QVQLVESGGGLVQAGGSLRLSFAASGFTFRNYAMGWYRQAPGKERELVAAISTSGGRTYYADSVKGRFTISRDNAKNTVYLEMNSLKPEDTAVYYCNAGSGSYSYRYNYWGQGTQVTVSS” was “high polyreactivity”; that for “QVQLVESGGGLVQAGGSLRLSCDASGLTFSGYVMGWYRQAPGKESELVAAISLSGGSTYYADSVKGRFTISRDNAKNTVYLQMNSLKPEDTAVYYCAARTPFYNSYRRDYWGQGTQVTVSS” was “high polyreactivity”; that for “QVQLVESGGGLVQAGGSLRLSCAASGSTFQTYAMGWYRQAPGKERELLAAINWRSGSTYYADSVKGRFTISRDNAKNTVYLQMNSLTPEDTAVSYCAAELDFSPGYYYLYDYWGQGTQVTVSS” was “low polyreactivity”.

On to “QVQLVESGGGLVQAGGSLRLICAASGSTFESYAMGWYRQAPGKERELVAAISRRGGRTYYADSVKGRFTISRDNAMNTVSLQMYSLKPEDTAVYYCATDSSYYGSDDYWGQGTQVTVSS”, for which the “polyreactivity (PSR sort gate)” value was “high polyreactivity”.

Regarding “QVQLVESGGGLVQAGGSLRLSCAASGSIFTEYAMGWYRQAPGKERELVAAISWSGATTYYADSVKGRFTISRDNAKNTVYLQMNSLKPEDTAVYYCAARWANRSYEYWGQGTQVSVSS”, the “polyreactivity (PSR sort gate)” value is listed as “low polyreactivity”. Consider “QVQLVESGGGLVQAGGSLRLSCAPSGYNFSKYAMGWYRQAPGKERELVAAITSGGGSTYYADSVKGRFTISRDNAKNTVYLQMNSLKPEDTAVYYCNAACRRIVGQTYDYWGQGTQVTVSS”, for which the “polyreactivity (PSR sort gate)” value was “high polyreactivity”. For “QVQHVESGGGLVQAGGSLRLSCAAYGRTFGYYAMGWNRQAPGKDRELVAAITSGGRTNYADSVKGRFTISRDNAKNTVYLQMISQKPEDTAVYYCAATWNWPLSERKFNYWGQGTQVTVSS”, the “polyreactivity (PSR sort gate)” value was “low polyreactivity”. The value for “QVQLVESGVGIVQAGCSLRLSCAASGSIFRYYAMGLYRQAPGKERELVAGITASTGRTYYADSVKGRFTISRDNAKNTVYLQMNSLKPEDTAVYYCAARSRYYEYDYWGQGTQVTVSS” was “low polyreactivity”. The value for “QVQLVESGGGLVQAGGSLRLSCAASGSIFFVYDMGWYRQAPGKERELVAGIRWSGGRTSYADSVKGRFTISRDNAKNTVYLQMNRLKPEDAAVYYCAADPRSYFTSEYWGQGTQVTVSS” was “high polyreactivity”. The value for “QVQLVESGGGLVQAGGSVRLSCAASGFIFYDYVMGWYRQAPGKERELVAAISASGGSTYYADSVKGRFTISRDYAKNTVYLQMNSLKPEDTAVYYCAAPRYYYYWRDYWGQGTQVTVSS” was “high polyreactivity”; that for “QVQLVESGGGLVQAGGSLRLSCAASGSIFRGNAMGWYRQAPGKERELVAGINRAGSTKYADSVKGRFTISRDNAKNTVYLQMNSLKPEDTAVYYCAAVRYERGLWSDYWGQGTQVSVSS” was “high polyreactivity”.
